According to the supplement of paper PMC9170038:

Each sequence was assayed on MS2 coat protein (assay: apparent KD of MS2 coat protein; higher = weaker reporter binding). Details: Eterna round: R107; input ligand: tryptophan 2.4 mM.
How it was run: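 Designed RNA switches were made by on-chip transcription from Illumina sequencing clusters and then titrated with SNAP-549-labelled MS2 coat protein. Twofold steps ran from 0.7 or 1.5 nM to 3 µM, each lasting 0.8–1.5 h early and 10–20 min late, in 100 mM Tris-HCl pH 7.5, 80 mM KCl, 4 mM MgCl2, without or with constant ligand. Apparent KD is the per-design median of normalised cluster binding-curve fits.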

In order of falling “apparent KD of MS2 coat protein” value:
1. UACCCAUAGGGAAGGAGCGCGCUAACAUGAGGAUCACCCAUGUAAAGGGUUUCUGGCUUAGCGCAGGUAGGUCGCCCUAUGGGUA [#10 Exclusion - Arginine B]  654 nM
2. AGUCUUAGUGGAAGGAGCGCAGUCAUAACAUGAGGAUCACCCAUGUCGAGGUGAGGGUCAUUGCAGGUAGGUCGCCAUAAUAGGA [#16 Same State - Arginine B]  369 nM
3. AGCUCGCAUCCUCUAGCGUCAAAGACGCGUCGAGGACCGGUACGGCCGCCACUCGACGUGAGGAUCACCCACGUCUAAGCGAGCA [TrypAX 10 #SwitchBubble #AlternativeMS2 #MS2Late #CuTurnoff]  295 nM
4. CGCGGACCACCUGAUACCAGCGCAGUCAUGCAUGAACCCAACAUGAGGAUCACCCAUGUACGCCCUUGGCAGCAGGGAAAAGUCG [theeternabot_exclusion_MS2_Theo_B_8]  163 nM
5. AGUUGACAAAAGUCAGCAACAUGAUCCGAAGGAGCGGGCGAAAGCCCAGGUAGGUCGCGGACAUGAGGAUCACCCAUGUCUCCUU [ArgAX 3 #OpenEnded #Sliding]  63.9 nM
6. GGGUAUGAUCCGGAUACCAGCGAACAUGAGGAUCACCCAUGUGACCUAAGAUAGGCUAAACGCCCUUGGCAGCCGAGAUUGCGUU [Same State Theophylline B GF7]  41 nM
7. UCAUGACAUGGGAAUAAAUAAGAAGGCGAAGGAGCGUGAAGAUUCACAGGUAGGUCGCGCAAAAUACAUGAGGAUCACCCAUGUU [JR_Nu_ExcArginiA_Sub032]  37.3 nM
8. UAAAAUAUCUGGGUGUAGGUAAUAACAGAUACCAGCCAGAUAACUGGCCCUUGGCAGCUGAAAACAUGAGGAUCACCCAUGUAAA [TheoAS 22 #OpenEnded #Ms2Late]  28.6 nM
9. GGUAGCAGGACUGAUACCAGUCCAGCGAAUCAUACGACGCAACAUGAGGAUCACCCAUGUGACCCUUGGCAGCAGUCUGCUACCG [Same State Theophylline B GF 29]  25.7 nM
10. AACAUGAGGAUCACCCAUGUCUGAACUGAAGGAGCGCUAAAUAAGGCAGGUAGGUCGCGGAAUUUUGUGUGCAUAUGCAUAUGGG [9.I]  23.8 nM
11. ACAUGAGGAUCACCCAUGUGAAGGCACGAUACCAGCUGAUCCCGUGGCCCUUGGCAGCGUCACGUUUGGUCCCGCGGAUGAGACG [crcmullin]  13.8 nM
12. UGGUCACUAGGAGAUACCAGCCGACAUGAGGAUCACCCAUGUAACCGGCGUCCUCCCUUAGGCCCUUGGCAGCUCGUAGUUGCUC [Vebice]  12.6 nM
13. GCGUACGAUCGGGAUACCAGACAUUGCCGUUAGGGUGAACUUGAGGAUCACCCAAGUUUUGUCCCUUGGCAGCCCGAUCGUACGC [ETB NP+V+V2 #9 Diff Apt, Same Structure]  10.4 nM
14. CUCUGAGUGAGGAAUCACUCAGAGGCGGAUACCAGCGAGGUCCAUCGCCCUUGGCAGCCGAACAUGAGGAUCACCCAUGUCGGUA [#1 Same State - Theophylline A Attempt #23 (HarryS)]  9.3 nM

These sequences were tested on MS2 coat protein (assay: apparent KD of MS2 coat protein; designed switch direction (-1 OFF switch, 1 ON switch): 1; higher = weaker reporter binding). Details: Eterna round: R95; input ligand: FMN 200 uM.
How it was run: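 Transcription of designed RNA switches on Illumina chips was done by stalled E. coli RNA polymerase. SNAP-549-labelled MS2 coat protein was then titrated in doubling steps from 0.7 or 1.5 nM to 3 µM, with steps of 0.8–1.5 h at the lowest and 10–20 min at the highest concentration. The per-design median over clusters of curve-fitted normalised fluorescence is reported as apparent KD.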

In order of falling “apparent KD of MS2 coat protein” value:
1. AGGUAACAUGAGGAUCACCCAUGUAAGGUGAACGUAGGAUAUCGAAGAGGUAGGGUAGGACGAGAAGGACGAGGAA [JR_SS1_Sub092] (puzzle: Same State 1)  347 nM
2. GGAGGAUGAGCGUAGGAUAUAGGAGGAGUGACAUGAGGAUCACCCAUGUGGUAGGAGGGAGGGUACUAGAAGGACGAGGAAGAGG [JR_SS2_Sub070] (puzzle: Same State 2)  54.6 nM
3. GUAGCAUGCAGGCAGGAUAUUCAUAUUAAAACAUGAGGAUCACCCAUGUAGGCCAAAAGGCCUUGGGAGAAGGGCCACAUGCUAC [Xeonanis - 19] (puzzle: Same State 2)  34.9 nM

Same assay, conditions: Eterna round: R95; input ligand: microRNA oligo, concentration not stated

In order of falling “apparent KD of MS2 coat protein” value:
1. GUAGCAUGCAGGCAGGAUAUUCAUAUUAAAACAUGAGGAUCACCCAUGUAGGCCAAAAGGCCUUGGGAGAAGGGCCACAUGCUAC [Xeonanis - 19] (puzzle: Same State 2)  488 nM
2. AGGUAACAUGAGGAUCACCCAUGUAAGGUGAACGUAGGAUAUCGAAGAGGUAGGGUAGGACGAGAAGGACGAGGAA [JR_SS1_Sub092] (puzzle: Same State 1)  346 nM
3. GGAGGAUGAGCGUAGGAUAUAGGAGGAGUGACAUGAGGAUCACCCAUGUGGUAGGAGGGAGGGUACUAGAAGGACGAGGAAGAGG [JR_SS2_Sub070] (puzzle: Same State 2)  64.5 nM

Same assay, conditions: Eterna round: R95; input ligand: none

In order of rising “apparent KD of MS2 coat protein” value:
1. GGAGGAUGAGCGUAGGAUAUAGGAGGAGUGACAUGAGGAUCACCCAUGUGGUAGGAGGGAGGGUACUAGAAGGACGAGGAAGAGG [JR_SS2_Sub070] (puzzle: Same State 2)  74.5 nM
2. AGGUAACAUGAGGAUCACCCAUGUAAGGUGAACGUAGGAUAUCGAAGAGGUAGGGUAGGACGAGAAGGACGAGGAA [JR_SS1_Sub092] (puzzle: Same State 1)  481 nM
3. GUAGCAUGCAGGCAGGAUAUUCAUAUUAAAACAUGAGGAUCACCCAUGUAGGCCAAAAGGCCUUGGGAGAAGGGCCACAUGCUAC [Xeonanis - 19] (puzzle: Same State 2)  842 nM

Same assay, conditions: input ligand: FMN 200 uM

In order of falling “apparent KD of MS2 coat protein” value:
1. CCGUAGAUGGAAGGAUAUGGAGCCUUAUUGGCUCCAGAAGGUUCAAAACAUGAGGAUCACCCAUGUACGGCGGUCAAUAGACCG [Eli NG1ss - 82] (Eterna round: R96, puzzle: Same State NG 1)  111 nM
2. CCGAUUGAUGGAGGAUAUGGAGCCUUAUUGGCUCCAGAAGGCUAAUAACAUGAGGAUCACCCAUGUCGGCGGUCUAAUGACCGA [Eli NG1ss - 54] (Eterna round: R96, puzzle: Same State NG 1)  36.1 nM
3. GGUGCCAAUAAAGCCUACAUGAGGAUCACCCAUGUAUGUAGGCAGGAUAUCGUUUGCUUUGCAAACGAGAAGGGCCUAGGCACC [JL SSNG3 1.21] (Eterna round: R96, puzzle: Same State NG 3)  16.3 nM

Same assay, conditions: input ligand: microRNA oligo, concentration not stated

In order of falling “apparent KD of MS2 coat protein” value:
1. CCGUAGAUGGAAGGAUAUGGAGCCUUAUUGGCUCCAGAAGGUUCAAAACAUGAGGAUCACCCAUGUACGGCGGUCAAUAGACCG [Eli NG1ss - 82] (Eterna round: R96, puzzle: Same State NG 1)  226 nM
2. CCGAUUGAUGGAGGAUAUGGAGCCUUAUUGGCUCCAGAAGGCUAAUAACAUGAGGAUCACCCAUGUCGGCGGUCUAAUGACCGA [Eli NG1ss - 54] (Eterna round: R96, puzzle: Same State NG 1)  57.5 nM
3. GGUGCCAAUAAAGCCUACAUGAGGAUCACCCAUGUAUGUAGGCAGGAUAUCGUUUGCUUUGCAAACGAGAAGGGCCUAGGCACC [JL SSNG3 1.21] (Eterna round: R96, puzzle: Same State NG 3)  24.3 nM

Same assay, conditions: input ligand: none

In order of rising “apparent KD of MS2 coat protein” value:
1. GGUGCCAAUAAAGCCUACAUGAGGAUCACCCAUGUAUGUAGGCAGGAUAUCGUUUGCUUUGCAAACGAGAAGGGCCUAGGCACC [JL SSNG3 1.21] (Eterna round: R96, puzzle: Same State NG 3)  29.8 nM
2. CCGAUUGAUGGAGGAUAUGGAGCCUUAUUGGCUCCAGAAGGCUAAUAACAUGAGGAUCACCCAUGUCGGCGGUCUAAUGACCGA [Eli NG1ss - 54] (Eterna round: R96, puzzle: Same State NG 1)  69.1 nM
3. CCGUAGAUGGAAGGAUAUGGAGCCUUAUUGGCUCCAGAAGGUUCAAAACAUGAGGAUCACCCAUGUACGGCGGUCAAUAGACCG [Eli NG1ss - 82] (Eterna round: R96, puzzle: Same State NG 1)  245 nM
